# Source: the supplement of paper PMC10567573
# B1: PHTF1 (parent)
# chain: RVKLISNKGTETDNDPSCVHPIIK
# B2: CHCHD6 (parent)
# chain: MYKLSSEQFHEAASKMESTIKPRR
# Variants of: B1
# Assay: protein stability index of a GFP-peptide fusion (GPS, HEK-293T) (PSI 1-6); higher = more stable
# Conditions: c terminus: a fixed tail appended
# 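Note: lentivirally expressed fusions sorted by FACS into six bins by GFP to DsRed ratio, PSI derived from sequencing read proportions per bin multiplied by bin number.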
row,Variant,protein stability index
1,RVKIISNKGTETDNDPSCVHPIIK [L4I],4.19
2,RVKLISNKGTETDNDPSCVPPIIK [H20P],4.02
3,RVKLISNKGTETDNDPSCVWPIIK [H20W],3.32
4,RVKLISNKGTETDNDPSCVGPIIK [H20G],4.43
5,RVKLISNKGTETDNDPSCVIPIIK [H20I],3.6
6,RVKLISNKGIETDNDPSCVHPIIK [T10I],3.74
7,RVKLISNKGAETDNDPSCVHPIIK [T10A],4.2
8,RVKLISNKGVETDNDPSCVHPIIK [T10V],3.38
9,RVKLISNKGNETDNDPSCVHPIIK [T10N],4.2
10,RVKLISNKGTETDNDPSCVHPIRK [I23R],4.6
11,RVKLISNKGTETDNDPSCVHPIYK [I23Y],4.16
12,RVKLISNKGTETDNDPSCVHPIPK [I23P],4.69
13,RVKLIYNKGTETDNDPSCVHPIIK [S6Y],3.34
14,RVKLISNKGTETDNDPSQVHPIIK [C18Q],4.28
15,RVKLISNKGTETDMDPSCVHPIIK [N14M],3.6
16,GVKLISNKGTETDNDPSCVHPIIK [R1G],4.15
17,SVKLISNKGTETDNDPSCVHPIIK [R1S],4.56
18,KVKLISNKGTETDNDPSCVHPIIK [R1K],4.05
19,RVALISNKGTETDNDPSCVHPIIK [K3A],4.38
20,RVKLQSNKGTETDNDPSCVHPIIK [I5Q],4.8

row,Variant,protein stability index
1,RVKLYSNKGTETDNDPSCVHPIIK [I5Y],3.75
2,RVKLGSNKGTETDNDPSCVHPIIK [I5G],4.09
3,RQKLISNKGTETDNDPSCVHPIIK [V2Q],4.65
4,RVKLISHKGTETDNDPSCVHPIIK [N7H],3.79
5,RVKLISFKGTETDNDPSCVHPIIK [N7F],2.92
6,RVKLISNKGTEKDNDPSCVHPIIK [T12K],4.49
7,RVKLISNKGTEHDNDPSCVHPIIK [T12H],4.24
8,RVKLISNKGTETDNDPSCVHAIIK [P21A],3.72
9,RVKLISNKGTETDNDPSCVHKIIK [P21K],3.84
10,RVKLISNKGTETDNDPSCVHHIIK [P21H],4.03
11,RVKLISNKGTETDNDPSCVHRIIK [P21R],4
12,RVKLISNKGTETDNDSSCVHPIIK [P16S],4.4
13,RVKLISNKGTETDNDWSCVHPIIK [P16W],2.37
14,RVKLISNKGTETDNDPSCVHPDIK [I22D],4.63
15,RVKLISNKGTETDNDPSCVHPLIK [I22L],4.22
16,RVKLISNKGTETDNDPSCQHPIIK [V19Q],4.21
17,RVKLISNKGTETDNDPSCEHPIIK [V19E],4.32
18,RVKLISNKGTETDNDPSCCHPIIK [V19C],3.93
19,RVKLISNKGTETDNDPSCNHPIIK [V19N],4.38
20,RVKLISNKGTETANDPSCVHPIIK [D13A],3.72

row,Variant,protein stability index
1,RVKLISNKGTETFNDPSCVHPIIK [D13F],2.96
2,RVKLISNKGTETINDPSCVHPIIK [D13I],3.24
3,RVKLISNKGTETQNDPSCVHPIIK [D13Q],3.9
4,RVKLISNKGTETDNDPSCVHPIIT [K24T],3.68
5,RVKLISNKGTNTDNDPSCVHPIIK [E11N],4.04
6,RVKLISNKGTCTDNDPSCVHPIIK [E11C],3.69
7,RVKLISNKGTKTDNDPSCVHPIIK [E11K],3.7
8,RVKLISNKGTRTDNDPSCVHPIIK [E11R],3.45
9,RVKLISNKGTGTDNDPSCVHPIIK [E11G],3.57
10,RVKLISNKGTETDNDPRCVHPIIK [S17R],3.99
11,RVKLISNKGTETDNDPECVHPIIK [S17E],4.71
12,RVKLISNKGTETDNDPHCVHPIIK [S17H],4.06
13,RVKLISNKGTETDNDPCCVHPIIK [S17C],3.53
14,RVKLISNKVTETDNDPSCVHPIIK [G9V],4.18
15,RVKLISNKWTETDNDPSCVHPIIK [G9W],2.8
16,RVKLISNKATETDNDPSCVHPIIK [G9A],4.12
17,RVKLISNKKTETDNDPSCVHPIIK [G9K],3.98
18,RVKLISNKPTETDNDPSCVHPIIK [G9P],3.95

# Variants of: B2
# Assay: as above
# Conditions: c terminus: a fixed tail appended
row,Variant,protein stability index
1,PYKLSSEQFHEAASKMESTIKPRR [M1P],4.36
2,AYKLSSEQFHEAASKMESTIKPRR [M1A],3.87
3,WYKLSSEQFHEAASKMESTIKPRR [M1W],3.36
4,TYKLSSEQFHEAASKMESTIKPRR [M1T],4.12
5,NYKLSSEQFHEAASKMESTIKPRR [M1N],4.37
6,HYKLSSEQFHEAASKMESTIKPRR [M1H],4.18
7,SYKLSSEQFHEAASKMESTIKPRR [M1S],4
8,VYKLSSEQFHEAASKMESTIKPRR [M1V],4.03
9,FYKLSSEQFHEAASKMESTIKPRR [M1F],3.7
10,KYKLSSEQFHEAASKMESTIKPRR [M1K],4.13
11,EYKLSSEQFHEAASKMESTIKPRR [M1E],4.44
12,YYKLSSEQFHEAASKMESTIKPRR [M1Y],3.56
13,GYKLSSEQFHEAASKMESTIKPRR [M1G],4.53
14,LYKLSSEQFHEAASKMESTIKPRR [M1L],3.06
15,CYKLSSEQFHEAASKMESTIKPRR [M1C],3.59
16,RYKLSSEQFHEAASKMESTIKPRR [M1R],4.33
17,DYKLSSEQFHEAASKMESTIKPRR [M1D],5.02
18,QYKLSSEQFHEAASKMESTIKPRR [M1Q],4.24

row,Variant,protein stability index
1,IYKLSSEQFHEAASKMESTIKPRR [M1I],3.41
2,MNKLSSEQFHEAASKMESTIKPRR [Y2N],4.51
3,MMKLSSEQFHEAASKMESTIKPRR [Y2M],4.45
4,MIKLSSEQFHEAASKMESTIKPRR [Y2I],3.98
5,MLKLSSEQFHEAASKMESTIKPRR [Y2L],4.34
6,MEKLSSEQFHEAASKMESTIKPRR [Y2E],4.42
7,MSKLSSEQFHEAASKMESTIKPRR [Y2S],4.5
8,MPKLSSEQFHEAASKMESTIKPRR [Y2P],4.77
9,MRKLSSEQFHEAASKMESTIKPRR [Y2R],4.7
10,MCKLSSEQFHEAASKMESTIKPRR [Y2C],3.53
11,MGKLSSEQFHEAASKMESTIKPRR [Y2G],4.48
12,MFKLSSEQFHEAASKMESTIKPRR [Y2F],4.01
13,MDKLSSEQFHEAASKMESTIKPRR [Y2D],4.83
14,MKKLSSEQFHEAASKMESTIKPRR [Y2K],4.7
15,MHKLSSEQFHEAASKMESTIKPRR [Y2H],4.44
16,MTKLSSEQFHEAASKMESTIKPRR [Y2T],3.29
17,MQKLSSEQFHEAASKMESTIKPRR [Y2Q],4.25
18,MAKLSSEQFHEAASKMESTIKPRR [Y2A],4.55
